These are literature values, as cited in article PMC3310959.

Usually Kd stands for the equilibrium constant for the complex coming apart.

In this data set the target is E-cadherin (Mus musculus) (UniProt P09803).

For E-cadherin (from UniProt P09803), the Kd is 97 µM.
